The target of series [1] is T1, C1 WT (ZF10-13) (mouse, UniProt A2A5K6 845-1337).
T1 sequence: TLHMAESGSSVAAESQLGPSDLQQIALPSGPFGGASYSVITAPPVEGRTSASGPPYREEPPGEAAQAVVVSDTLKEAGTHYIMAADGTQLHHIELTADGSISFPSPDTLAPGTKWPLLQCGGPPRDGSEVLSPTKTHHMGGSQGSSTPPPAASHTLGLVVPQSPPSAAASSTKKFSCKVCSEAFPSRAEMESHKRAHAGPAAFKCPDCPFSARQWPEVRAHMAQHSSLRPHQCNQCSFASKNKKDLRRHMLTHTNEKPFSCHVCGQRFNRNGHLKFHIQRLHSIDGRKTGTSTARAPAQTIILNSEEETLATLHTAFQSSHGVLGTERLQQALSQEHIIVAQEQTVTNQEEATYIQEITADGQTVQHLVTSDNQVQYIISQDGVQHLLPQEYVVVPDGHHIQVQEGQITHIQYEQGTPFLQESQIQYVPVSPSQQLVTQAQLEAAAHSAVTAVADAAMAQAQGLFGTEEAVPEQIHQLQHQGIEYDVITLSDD
The experiment in a line: quantitative EMSA.

The target in series [2] is T2, C1 R1092W (ZF10-13) (mouse, UniProt A2A5K6 845-1337, R1092W).
T2 sequence: T1 sequence with R248W
Description: quantitative EMSA. (In EMSA bound probe runs differently from free probe, usually more slowly.)

The source of these data is article PMC4949324.

What is called Kd is the concentration at which binding is half-saturated. Read a high Kd as a looser complex.

Positions count from the first letter of the chain named.

B1: A2 (dsDNA)
DNA 1: AGTCCGACTCAGGACCCCGACCAAGCTG
DNA 2: CAGCTTGGTCGGGGTCCTGAGTCGGACT
On to B1, for which the Kd in series [1] stood at 73.4 ± 7.1 nM; in series [2], 1410 ± 117 nM.
